Measured values from patent publication US20220396635A1 (UNIVERSIT T STUTTGART, published 2022).

B1: scDb3-43xhuU3-His (bispecific antibody)
chain: QVQLQQSGPGLVKPSQTLSLTCAISGDSVSSNRAAWNWIRQSPSRGLEWLGRTYYRSKWYNDYAQSLKSRITINPDTPKNQFSLQLNSVTPEDTAVYYCARDGQLGLDALDIWGQGTMVTVSSGGGGSDIQMTQSPSSLSASVGDRVTITCRASQDIRNYLNWYQQKPGKAPKLLIYYTSRLHSGVPSRFSGSGSGTDFTFTISSLQPEDIATYYCQQGNTLPWTFGQGTKLEIKRGGGGSGGGGSGGGGSQVQLVQSGAEVKKPGSSVKVSCKASGGTFSGYTMNWVRQAPGQGLEWMGLINPYKGVSTYNGKFKDRVTITADKSTSTAYMELSSLRSEDTAVYYCARSGYYGDSDWYFDVWGQGTLVTVSSGGGGSQAGLTQPPAVSVAPGQTASITCGRDNIGSRSVHWYQQKPGQAPVLVVYDDSDRPAGIPERFSGSNYENTATLTISRVEAGDEADYYCQVWGITSDHVVFGGGTKLTVLAAAHHHHHH
notes: Single-chain diabody, bivalent: one HER3 site (3-43) and one CD3 site (huU3, humanized UCHT1); The His tag is part of the entry; also called anti-HER3×CD3 bispecific scDb
B2: scDb3-43xhuU3-scFv3-43-His (bispecific antibody)
chain: QVQLQQSGPGLVKPSQTLSLTCAISGDSVSSNRAAWNWIRQSPSRGLEWLGRTYYRSKWYNDYAQSLKSRITINPDTPKNQFSLQLNSVTPEDTAVYYCARDGQLGLDALDIWGQGTMVTVSSGGGGSDIQMTQSPSSLSASVGDRVTITCRASQDIRNYLNWYQQKPGKAPKLLIYYTSRLHSGVPSRFSGSGSGTDFTFTISSLQPEDIATYYCQQGNTLPWTFGQGTKLEIKRGGGGSGGGGSGGGGSQVQLVQSGAEVKKPGSSVKVSCKASGGTFSGYTMNWVRQAPGQGLEWMGLINPYKGVSTYNGKFKDRVTITADKSTSTAYMELSSLRSEDTAVYYCARSGYYGDSDWYFDVWGQGTLVTVSSGGGGSQAGLTQPPAVSVAPGQTASITCGRDNIGSRSVHWYQQKPGQAPVLVVYDDSDRPAGIPERFSGSNYENTATLTISRVEAGDEADYYCQVWGITSDHVVFGGGTKLTVLAAAGGSGGGGSGGGTQVQLQQSGPGLVKPSQTLSLTCAISGDSVSSNRAAWNWIRQSPSRGLEWLGRTYYRSKWYNDYAQSLKSRITINPDTPKNQFSLQLNSVTPEDTAVYYCARDGQLGLDALDIWGQGTMVTVSSGGGGSGGGGSGGGGSQAGLTQPPAVSVAPGQTASITCGRDNIGSRSVHWYQQKPGQAPVLVVYDDSDRPAGIPERFSGSNYENTATLTISRVEAGDEADYYCQVWGITSDHVVFGGGTKLTVLGSLHHHHHH
notes: Single chain, trivalent: two HER3 sites (3-43) and one CD3 site (huU3); The His tag is part of the entry; also called scDb-scFv; trivalent anti-HER3×anti-CD3 bsAb

How the values were obtained:
CD3 = molecular target: T1, CD3 (UniProt P07766 23-207); test: flow cytometry, serial dilution on Jurkat cells (CD3-expressing), PE anti-His detection
T1 construct: whole, on cells; on cells it stands in the TCR/CD3 complex; also called CD3 on Jurkat cells
Protocol: (§1) Cell binding studies were performed by flow cytometry using cell lines with different expression levels of HER3 (Table 1). Adherent cells were washed with PBS and shortly trypsinized at 37° C. Trypsin was quenched with FCS-containing medium and removed by centrifugation (500×g, 5 min.). 1×10⁵ target cells (MCF-7, Jurkat, BT-474, FaDu, or LIM1215) were incubated with a serial dilution of recombinant proteins for 1 hour at 4° C. Bound protein was detected using a PE-conjugated anti-hexahistidyl tag mAb (Miltenyi Biotec). Incubation and washing steps were performed in PBS, 2% FBS, and 0.02% sodium azide. Fluorescence was measured by MACSQuant VYB (Miltenyi Biotec) and data were analyzed using FlowJo (Tree Star). Relative median fluorescence intensities (MFI) were calculated as followed: relative MFI=((MFIₛₐₘₚₗₑ−(MFIdetection−MFIcells))/MFIcells).

HER3 [1] = molecular target: T2, HER3 (UniProt P21860 20-1342, limits assumed); test: cell-based or functional assay
HER3 [2] = molecular target: T2, HER3; test: flow cytometry, serial dilution on MCF-7 cells (HER3-expressing), PE anti-His detection
Protocol: as §1

HER3 [3] = molecular target: T2, HER3; test: flow cytometry, serial dilution on LIM1215 cells (HER3-expressing), PE anti-His detection
Protocol: as §1

HER3 [4] = molecular target: T2, HER3; test: flow cytometry, serial dilution on BT-474 cells (HER3-expressing), PE anti-His detection
Protocol: as §1

HER3 [5] = molecular target: T2, HER3; test: flow cytometry on HER3-expressing cell lines, EC50 compared with scDb-scFv
Protocol: as §1

HER3 [6] = molecular target: T2, HER3; test: cell-based or functional assay; remark: listed apart in the source
HER3 [7] = molecular target: T2, HER3; test: flow cytometry, serial dilution on FaDu cells (HER3-expressing), PE anti-His detection
Protocol: as §1

Binder	EC50 (CD3) [pM]	EC50 of PBMC cytotoxicity on BT-474 cells, E:T 5:1 (HER3 [1]) [pM]	EC50 of PBMC cytotoxicity on BT-474 cells, E:T 10:1 (HER3 [1]) [pM]	EC50 of PBMC cytotoxicity on FaDu cells, E:T 5:1 (HER3 [1]) [pM]	EC50 of PBMC cytotoxicity on FaDu cells, E:T 10:1 (HER3 [1]) [pM]	EC50 of PBMC cytotoxicity on LIM1215 cells, E:T 5:1 (HER3 [1]) [pM]	EC50 of PBMC cytotoxicity on LIM1215 cells, E:T 10:1 (HER3 [1]) [pM]	EC50 of PBMC cytotoxicity on MCF-7 cells, E:T 5:1 (HER3 [1]) [pM]	EC50 of PBMC cytotoxicity on MCF-7 cells, E:T 10:1 (HER3 [1]) [pM]	EC50 (HER3 [2]) [pM]	EC50 (HER3 [3]) [pM]	EC50 (HER3 [4]) [pM]	fold weaker binding than scDb-scFv (HER3 [5]) [fold]	EC50 of CD69 expression on CD4+ T-cells (CD4+CD69+), MCF-7 co-culture (HER3 [6]) [pM]	EC50 of CD69 expression on CD8+ T-cells (CD8+CD69+), MCF-7 co-culture (HER3 [6]) [pM]	EC50 of IFN-γ release, PBMCs co-cultured with MCF-7 cells (HER3 [6]) [pM]	EC50 of IL-2 release, PBMCs co-cultured with MCF-7 cells (HER3 [6]) [pM]	EC50 of proliferation of CD4+ T-cells, MCF-7 co-culture (HER3 [6]) [pM]	EC50 of proliferation of CD8+ T-cells, MCF-7 co-culture (HER3 [6]) [pM]	EC50 (HER3 [7]) [pM]
B1	1640	170	200	400	300	80	30	70	14	4700	11700	9700	≤ 50	100	160	609	404	500	300	
B2	4000	2	7	200	100	3	1	3	1	30	200	200		3	20	567	403	80	90	100
